Consider one substance from paper PMC5298718.

The experiment deals with NRP1-PerCP-Cy5.5 (carrier free recombinant neuropilin-1 coupled to PerCP-Cy5.5) (UniProt O14786). Nature of the experiment: FRET or BRET; Scheme 3: VEGF (22.4 nM or 11.2 nM, diluted in PBS) incubated simultaneously in solution with the donor (RLuc8-Ra02 or RLuc8-4xGly-Ra02, cleared HEK293 lysate) and the acceptor NRP1-PerCP-Cy5.5, both in excess; n-CLZ in BRET assay buffer; BRET ratio magenta filter/blue filter, against a no-VEGF control.
Sequence of UniProt O14786 (O14786 22-856): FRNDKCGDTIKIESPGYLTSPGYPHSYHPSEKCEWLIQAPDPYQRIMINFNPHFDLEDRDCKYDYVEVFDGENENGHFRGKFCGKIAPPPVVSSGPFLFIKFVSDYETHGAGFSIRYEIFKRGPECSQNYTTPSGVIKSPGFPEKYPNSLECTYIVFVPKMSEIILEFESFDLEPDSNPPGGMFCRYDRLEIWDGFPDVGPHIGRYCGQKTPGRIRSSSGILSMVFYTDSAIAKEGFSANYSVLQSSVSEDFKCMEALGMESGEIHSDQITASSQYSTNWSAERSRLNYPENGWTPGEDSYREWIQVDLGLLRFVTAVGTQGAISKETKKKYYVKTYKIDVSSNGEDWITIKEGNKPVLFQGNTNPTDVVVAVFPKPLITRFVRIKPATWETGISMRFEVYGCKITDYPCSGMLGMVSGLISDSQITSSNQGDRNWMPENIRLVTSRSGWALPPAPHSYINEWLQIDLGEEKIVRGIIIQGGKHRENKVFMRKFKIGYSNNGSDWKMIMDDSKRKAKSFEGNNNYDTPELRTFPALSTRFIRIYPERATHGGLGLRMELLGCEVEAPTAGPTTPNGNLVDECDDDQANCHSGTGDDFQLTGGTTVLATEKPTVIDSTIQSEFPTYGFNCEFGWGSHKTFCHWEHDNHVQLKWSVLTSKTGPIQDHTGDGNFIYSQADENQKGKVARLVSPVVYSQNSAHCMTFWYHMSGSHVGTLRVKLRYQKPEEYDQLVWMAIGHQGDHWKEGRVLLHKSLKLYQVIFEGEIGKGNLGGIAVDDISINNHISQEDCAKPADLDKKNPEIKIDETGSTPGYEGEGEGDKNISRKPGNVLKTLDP

For “vascular endothelial growth factor (rhVEGF165) (ligand)”, the BRET ratio (donor RLuc8-4xGly-Ra02, 11.2 nM VEGF) was 114 mBU; the BRET ratio (donor RLuc8-4xGly-Ra02, 22.4 nM VEGF) is 119 mBU; the BRET ratio (donor RLuc8-Ra02, 11.2 nM VEGF) was determined as 110 mBU; the BRET ratio (donor RLuc8-Ra02, 22.4 nM VEGF) stood at 115 mBU.
